Data published in US9939430B2, “Platelet analysis” (Dublin City University, priority 2008, dated 2018).
Entries after “also recorded” stand apart in the source; their conditions may differ.

Key:
[1] = molecular target: T1, platelet fibrinogen receptor αIIbβ3 (GPIIb/IIIa) (Homo sapiens, UniProt P05106+P08514); assay: Platelet adhesion to fibrinogen patterned substrate, whole blood preincubated with abciximab in vitro; type: cell-based
T1 construct: incubation of whole blood with different doses of abciximab (Reopro®); endogenous in cells; host or cells: platelets in donor whole blood
Description: The single platelet counting method enables high resolution and reproducible platelet adhesion and function assays in contrast with fluorescence measurements of platelet adhesion. The drug abciximab inhibits platelet adhesion to fibrinogen. […] We compare this platelet adhesion quantification method with a classical method which consists on the measure of the fluorescence intensity originated by the platelets adhering to the surface (which have been fluorescently labelled after adhesion took place). […] Subsequently the samples were washed with buffers, fixed and labelled using platelet specific antibodies fluorescently labelled. After the samples were mounted on microscopy glass slides and imaged. (i)-(iii) show single platelet arrays formed on 6 micron fibrinogen dots array; (iv)-(vi) show platelets adhering to 12 micron fibrinogen dots array; (vii)-(ix) show platelets adhering to 24 micron fibrinogen dots array. […] It is more difficult to quantify the number of platelets adhering to the 12 or 24 micron fibrinogen dots. The effect of the drug in platelet adhesion was quantified using two methods, single platelet counting method, and fluorescence method. (B) Graphs showing the fluorescence intensity measured on samples incubated with blood samples preincubated with different doses of abxicimab (x axes units: abciximab concentration (g/mL); y axes units: fluorescence, arbitrary units). (C) Graph showing the percentage of filled (occupied by platelets) dots on 6 microns fibrinogen dots array on samples incubated with blood samples preincubated with different doses of abxicimab (x axes units: abciximab concentration (g/mL); y axes units: percentage of 6 micron fibrinogen dots occupied by platelets).
In parallel flow cytometry is used to quantify the inhibition of fibrinogen-platelet binding resulting from incubation of whole blood with different doses of abciximab (Reopro®). To perform the measurements by flow cytometry, platelets were pre-activated with thrombin-receptor-activating peptide. […]

GP Ilb/IIIa receptor = molecular target: T2, GP Ilb/IIIa receptor (Homo sapiens, UniProt P05106+P08514); assay: Platelet adhesion on fibrinogen patterned substrate in PCI patients before and after Reopro administration; type: in vivo; conditions: for platelet adhesion after administration: 0.25 mg/kg dose during PCI
T2 construct: blood samples from 10 cardiovascular patients undergoing Percutaneous Coronary Interventions (PCI); endogenous in cells; host or cells: platelets in blood of PCI patients
Protocol: The above in-vitro results were validated in a small-scale, targeted clinical study conducted at the Clinical Research Centre in Beaumont Hospital. The same protein patterned substrate was tested with blood samples from 10 cardiovascular patients undergoing Percutaneous Coronary Interventions (PCI). Three patients who received a 0.25 mg/kg dose of Reopro® during the procedure had their platelet adhesion measured using the method of the present invention before Reopro® administration (image i of FIG. 10), 10 minutes after Reopro® administration (image ii of FIG. 10), and between 20 and 24 hours after Reopro® administration (image iii of FIG. 10).
Multiple fluorescent dots on the grid indicates presence of adhering platelets (i).

platelets = assay: Platelet adhesion from whole blood on protein patterned surfaces (percentage of filled dots); type: cell-based, human; conditions: 2 μm dots array, four normal donors
Protocol: For the fabrication of protein patterns, specific platelet adhesive proteins or platelet antibodies were directly patterned on bare glass substrates by microcontact printing (FIG. 1a). After protein patterning the rest of the glass substrate was blocked with bovine serum albumin (BSA) to avoid non specific capture in non selected areas. Characterization of the protein pattern was carried out by immunofluorescence to assure good homogenous coverage of the protein pattern FIG. 14(ii) along all the patterned area. Samples were incubated with 1 mL of citrated or hirudinised whole blood for a maximum of 30 minutes.
The same blood sample exposed to a number of identical substrates gave small deviations; lower than 10%, in the platelet adhesion (FIG. 4b). We have quantified the platelet adhesion from whole blood on fibrinogen, vWF and anti-CD42b surfaces for four different normal donors. […]
The probability that a platelet is captured on a single spot depends on the probability that the platelet touches the protein spot, and on the binding affinity of the platelet for the protein matrix. […] We calculated the mean platelet adhesion on antibody, fibrinogen and vWF patterned surfaces on 2 μm and 6 μm dots arrays. […] A mean platelet adhesion of 45%, 10% and 15% were calculated for the antibody, the fibrinogen and the vWF surfaces, respectively. […]

Substance: abciximab
- platelet adhesion to the fibrinogen substrate after abciximab treatment ([1]; blood preincubated with abciximab (20 μg/mL), 2 and 6 μm dot arrays): do not adhere to the fibrinogen substrate
- inhibition of platelet adhesion in CVD patients compared to the diabetic patients ([1]; in vitro, 1.5 μg/ml Reopro, CVD patients on aspirin and clopidogrel vs type 2 diabetes patients on aspirin): increased inhibition
- Reopro's effects on platelet adhesion across population groups ([1]; in vitro, 1.5 μg/ml Reopro, normal donors, CVD patients, diabetic patients): effects appear greater in CVD patients than in normal or diabetic patients
- platelet adhesion after administration (GP Ilb/IIIa receptor; 20-24 hours after administration): increasing adhesion
- platelet adhesion after administration (GP Ilb/IIIa receptor; 10 minutes after administration, listed as Reopro®, 0.25 mg/kg): low adhesion; also recorded: limited platelet adhesion
- platelet adhesion after administration (fluorescence images, one subject) (GP Ilb/IIIa receptor; 21 h after administration): recovery of adhesiveness

Substance: fibrinogen
- mean platelet adhesion (platelets): 10%

Substance: von Willebrand factor [vWF]
- mean platelet adhesion (platelets): 15%
